Values quoted from earlier work as cited in article PMC3909715.
Where two headings read alike, the source gives them in different places.

What was measured:
Cys34 [1] = molecular target: T1, Cys34 (UniProt position 58, QYLQQCPFEDH); assay: chemical modification; conditions: reduced thiol; ligand state not stated
Cys34 [2] = molecular target: T1, Cys34; assay: kinetics; conditions: reduced thiol
Cys34 [3] = molecular target: T1, Cys34; conditions: reduced thiol (HSA-SH); ligand state not stated

In the case of “Human serum albumin (HSA) (Homo sapiens)”, the pKa (Cys34 [1]) is listed as “about 8”, the pKa (Cys34 [2]; ligand-free (fatty acid-free) HSA) is listed as 7.9±0.1 and the pKa (Cys34 [2]; ligand state not stated) is listed as “about 8”. The pKa (Cys34 [3]) was under 7.
